In article PMC10760634 (Genes & Development, 2023):

Target: UBE2D2 (wild type) (UniProt P62837 1-147)
Assay: ITC

UBE2D2 (wild type), sequence (P62837 whole entry): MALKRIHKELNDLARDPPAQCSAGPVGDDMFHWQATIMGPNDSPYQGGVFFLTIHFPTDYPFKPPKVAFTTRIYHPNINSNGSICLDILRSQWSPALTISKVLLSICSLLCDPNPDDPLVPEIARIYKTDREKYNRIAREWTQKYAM

B1: PHF7 (mPHF7 28–307) (domain or fragment)
chain: SSSPVCLLCLQEPGDPEKLGEFLQKDNLCVHYFCLILSSRLPQKGQPNRGLHGFMPEDIKREAVRASKKICFVCKKKGAAIRCQNDQCVQNFHLPCGQERGCLSQFFGEYKSYCRKHRPTQNIHQGSLGEESCVLCCENLSRTSVENIQSPCCSQAIYHRKCIQKYAHTSAKHFFKCPQCNNREEFPQEMLRMGIHIPDRDAAWELEPGAFSELYQRYRHCDAPICLYEQGRDSFEDEGRWRLILCATCGSHGTHRDCSSLRPNSKKWECNECLPASTTS
modifications: RED-NHS dye label (in the MST assay only)
binding result: binds
